Reference: the nanobody polyreactivity screen of Harvey et al. (2022)

Test: yeast display, Sf9 membrane polyspecificity reagent, FACS + sequencing; frameworks hold sequencing errors
How it was run: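 Synthetic nanobody libraries on Saccharomyces cerevisiae BJ5465 were galactose-induced for 36–48 hours, stained 1 hour at 4 °C with 10% biotinylated, detergent-solubilized Sf9 membrane reagent and enriched on streptavidin microbeads. FACS then separated cells into low and high (top ~1%) gates by anti-HA (expression) and streptavidin (reagent binding) fluorescence. Genes were colony-PCR amplified, MiSeq 2 × 250 sequenced and CDR-length filtered. A clone's polyreactivity label is that of its gate of origin.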
With “QVQLVESGEGLVQAGGSLRLSCAASRRIFEYYFMGWYSQAPGKERELVAAMNRRGTSTYYADSVKGRFTISRDNAKNTVYLQMNSLKPEDTAVYYCAAVDRDYARTTTYDYWGQGTEVTVSS” the “polyreactivity (PSR sort gate)” value was “high polyreactivity”. In the case of “QVQLVESGGGLVQAGGSLRLSCAASGITFPGYAMGWYTQAPGKERELVAVIRKSGTSTYYADSVKGRFTISRDNAKNTVYLQMNSLKPEDTAVYYCAAGGPSTLDDYWGQGTQVTVSS”, the “polyreactivity (PSR sort gate)” value was “low polyreactivity”. In the case of “QVQLVESGGGLVQAGGSLRLSCAASGRTFPAYAMGWYRQAPGKERELVARISYSGGNTYYADSVKGRFTISRDNAKNTVYLQMNSLKPEDTAVYYCAATRSHYPYRSGGDYWGQGTQVTVSS”, the “polyreactivity (PSR sort gate)” value was “low polyreactivity”. With “QVQLVESGGGLVQAGGSLRLSCAASGSTFTRYDMGGYRHAPGKERELVAAISKSGGSTYYADSVKGRFTISRDNAKNTVYLQMNSLKPEDTAVYYCARGSTKYHIYSLDYWGQGTQVTVSS” the “polyreactivity (PSR sort gate)” value was “low polyreactivity”. In the case of “QVQLVESGGGLVQAGGSLRLSCAASGRIFGRNAMGWYRQAPGKERELVAAISSGGGRTYYADSVKGRFTISRDNAKNTVYLQMNSLKPEDTSVYYCAAEDWYEYDYWGQGTQVTVSS”, the “polyreactivity (PSR sort gate)” value was “high polyreactivity”. With “QVQLVESGGGLVQAGGSLRLSCAASGSIFYLYAMGWYRQAPGKERELVAAISSSGGRTYYADSVKGRFTISRDNAKNTVYLQMNSLKPEDTAVYYCAARYWAKYSYGYWGQGTQVTVSS” the “polyreactivity (PSR sort gate)” value was “high polyreactivity”. With “QVQLVESGGGLVQAGGSLSLSCAASGSILQLYAMGWYRQAPGTERELVAAITESAGSKSYADSVKGRFTISRDNAKITVYLQMNSLKPEDTAVYYCNAEYSAYSGFDVEWSLDYDYWGQGTQVTVSS” the “polyreactivity (PSR sort gate)” value was “low polyreactivity”. With “QVQLVETGGGLVQAGGSLRLSCAASGRTFHRYAVGWYRQAPGKVRELVAAISFSGGSTYYADSVKGRFTISRDNAKNTVYLQMNSLKPEDTAVYYCAPRAVWSSWGRRYDSWGEGTQVTVSS” the “polyreactivity (PSR sort gate)” value was “high polyreactivity”. In the case of “QVQLVESAGGLVQAGGILRLSCAASGSIFVGYDMGWSRQAPGKERELVAAITSSGGGSTYYADSVKGRFTISRDNAKNTVYLQMNSLKPEDTAVYYCAARTSLWWFLKYDYWGQGTQVTVSS”, the “polyreactivity (PSR sort gate)” value was “low polyreactivity”. For “QVQLVESGGGLVQAGGSLRLSCAASGRTFQYNAMGWYRQAPGKEREFVAGITSIGGRTYYADSVKGRFTISRDNAKNTVYLQMNSLKPEETAVYYCAAVRGLAVGYDYWGQGTQVTVSS”, the “polyreactivity (PSR sort gate)” value was “high polyreactivity”. With “QVQHVESGGGLVQAGGSLRLSCAASGSTFWYAMGWYRQAPGKERELVAAITARGGRTYYADSVKGRFTISRDNAKNTVYLQMNSLKPEDTAVYYCARLSYAGGQWIIAKYDYWGQGTQVTVSS” the “polyreactivity (PSR sort gate)” value was “high polyreactivity”. In the case of “QVQLVESGGGLVQAGGSLRLSCAASGRTFKYNAMVWYRQAPGKERELVATISGSGGRKYYADSVKGRFTISRDNAKNTVYLQMNSLKPEDTAVYYCKAPRVKWLDWGQGTKVTVSS”, the “polyreactivity (PSR sort gate)” value was “high polyreactivity”. With “QVQLVESGGRLVQAGGSLRLSCAASGPIFAPYDMGWYRQAPGKERELVAAISRSGGSTYYADSVKGRFTISRDNAKNTVYLQMNSLKPEETPVYSCAAGLFVGFDYWGQGTQVTVTS” the “polyreactivity (PSR sort gate)” value was “high polyreactivity”. With “QVQLVESGGGLVQAGGSLRLICAASGRYYAMGWYRQAPGKERELVAAISSGGSTNYADSVKGRFTISRDNAKNTVYLQMNSLKPEDTAVYYCAALIRQLRYYLYYYWGQGTQVTVSS” the “polyreactivity (PSR sort gate)” value was “high polyreactivity”. For “QVQLVESGGGLVQAGGSLRLSCAASGSIFRYNAMGWYRQAPGKERELVAAISTSGGSTYYADSVKGRFTISRDNAKNTVYLQMNSLKPEDTAVYYCNKLRNSDSRGIVWYGYWGQGTQVTVSS”, the “polyreactivity (PSR sort gate)” value was “high polyreactivity”. With “QVQLVESGGGLVQAGGSLRLSCAASGSTFHAYAMGWYRQAPGKEREMVAAISWRGGSTYYADSVKGRFTISRDNAKNTVYLQMNSLKPEDTAVYYCAASVQGLFGTSGLEGVDYWGQGTQVTVSS” the “polyreactivity (PSR sort gate)” value was “high polyreactivity”. In the case of “QVQLVESGGGLVQAGGSLRLSCAASGRTFGGYAMGWYRQAPGKERELVAAISSSGTRTYYAESVKGRFTISRDNAKNTVYLQMNSLKPEDTAVYYCAAYRVIVWYAMDYWGQGTQVTVSS”, the “polyreactivity (PSR sort gate)” value was “high polyreactivity”. For “QVQLVESGGGLVQAGGSLRLSCAASGRIFRYYAMGWYRQAPWKERELVAVINWSGGSTYYADSVKGRFTISRDNAKNTVYLLMNSLKPEDTAVYYCNVYSVYPQFNYWGQGTQVTVSS”, the “polyreactivity (PSR sort gate)” value was “high polyreactivity”. With “QVQLVESGGGLVQAGGSLRLSCAASGRTFKKYAMGWYRQAPGKEREMVAAITGSGGSTYYADSVKRRFTISRDNAKNTVYLQMNSLKPEDTAVYYCAAYAYGVWHSQDGGNYWGQGTQVTVSS” the “polyreactivity (PSR sort gate)” value was “low polyreactivity”. With “QVQLVESGGGLVQAGGRLRLSCAASGSIFQFYAMGWYRQAPGKERELVAAINWSGGSTYYADSVKGRFTISRDNAKNTVYLQMNSLKPEETAVYYCNALRRIGRYYKAGGYGYWGQGTQVTVSS” the “polyreactivity (PSR sort gate)” value was “high polyreactivity”. With “QVQLVESGGGLVQAGGRLRLSCAASGFTFDYNAMGWYIQAPGKEREFVASISVSGGSTYYADSVKGRFTISRDNAKNTVYLQMNSLKPEDTAVYYCAAELTGDGTLGYDFWGQGTQVTVSS” the “polyreactivity (PSR sort gate)” value was “low polyreactivity”. For “QVQRVESGGGLVQAGGSLRLTCAASGSIFRSYAMGWYRQAPGKERELVAAISSSSGSTYYADSVKGRFTISRDKAKYTVYLQMNSLKPEDTAVYYCAARYRIGNNGYEYWGQGTQVTVSS”, the “polyreactivity (PSR sort gate)” value was “low polyreactivity”. In the case of “QVQLVESGGGLVQAGGSLRLSCAASGYIFPGNAMGWYRQAPGKERELVATITDDTSTNYADSVKGRFTISRDNAKNTVYLQMNSLKPEDTAVYYCAADLYYWYPYLYDYWGQGTQVTVSS”, the “polyreactivity (PSR sort gate)” value was “low polyreactivity”. In the case of “QVQLVESGGGLVQAGGSLRLSCAASGRIFKPYVMGWYRQAPGKERELGAAISWGGGRTYYADSVKGRFTISRDNAKNTVYLQMNSLKPEDTAVYYCAAPRRFDYDWGQGTQVTVSS”, the “polyreactivity (PSR sort gate)” value was “low polyreactivity”. With “QVQLVESGGGLVQAGGSLRLSCAASGRTFGTYAMGWYRQAPGKERELVASITSGDSTNYADSVKGRFTISRDYAKNTVYLQMNSLKPEDTAVYYCNARGDVIVTPPKFSFNYEYWGQGTQVTVSS” the “polyreactivity (PSR sort gate)” value was “low polyreactivity”. For “QVQLVESGGGLVQAGGSLRLSCAASGITFVFYTMGWYRQAPGKETELVAAISRSGASTYYADSVKGRFTISRDNAKNTVYLQMNSLKPEDTAVYYCAADRGYRFRMDYWGQGTQVTVST”, the “polyreactivity (PSR sort gate)” value was “high polyreactivity”. With “QVQLVESGGGLVQAGGSLRLSCSASGIIFPTYAMGLYRQAPGKERELVAAIRWTGGSTYYADSVKGRFTISRDNAKNTVYLQMNSLKPEDTAVYYCAAAYRGRYKYYYWGQGTQVTVSS” the “polyreactivity (PSR sort gate)” value was “high polyreactivity”. With “QVQLVESGGGFVQAGGSLRLRCAASGLIFAPYAMGWYRQAPGKEREFVAAITRSDGSTYYADSVKGRFTISRDNAKNTVYLQMNSLKPEDTAVYYCAAEPDTYWYTYDYWGQGSQVTVSS” the “polyreactivity (PSR sort gate)” value was “low polyreactivity”. For “QVQLVESGGGLVQAGGSLRLSCAASGINTAGYAMGWYRQAPGKERELVAAISTSGTSTYYADSVKGRFTISRDNAQNTVYLQMNSLQPEDTAVYYCAYTNYYGVGYYYWGQGTLVTVSS”, the “polyreactivity (PSR sort gate)” value was “low polyreactivity”. For “QVQLVESGGGLVQAGGSLRLSCAASGFIFIRNAMGWYRQAPGKQRELVATIRYSGGNTYYADSVKGRFTISRDNAKNTVYLQMNSLNPEDTAVYYCAAGSGYWGRSPTRCGQGGYWGQGTQVTVSS”, the “polyreactivity (PSR sort gate)” value was “high polyreactivity”. In the case of “QVQLVESGGGLVQAGGSHRLSCADSGFILAYYAMGWYRPAPGKERELVAAISIGSSTDYADSVKGRFTISRDNAKNTVYLQMNSLKPEDTAVYYCAARDYYYEYDYWGQGTQVTVSS”, the “polyreactivity (PSR sort gate)” value was “low polyreactivity”. In the case of “QVQLVESGGGLVQAGGSLRLSCAASGYIFTRNAMGWYRQAPGKERELVATISSRGGRTYYADSVKGRFTISRDNAKNTVYLQMNSLKPEDTAVYYCAATPWYRTRTYDYWGQGTQVTVSS”, the “polyreactivity (PSR sort gate)” value was “high polyreactivity”. For “QVQLVESGGGFVQAGGSLRLSCAASGHIFFYYTKGWYRQAPGKERELVAGITIGGSTNYADSVKGRFTISRDNAKNSVYLQMNSLKPEDTAVYYCYVVLYVSIYSYGEYYYWGQGTQVTVSS”, the “polyreactivity (PSR sort gate)” value was “low polyreactivity”. In the case of “QVQLVESGVGLVQAGGSLRLSCAASGSTLFVYAMGRYRQAPGKERELVAAISRGGSTYYADSVKGRFTISRDNAKNTVYLQMNSLKPEDTAVYYCAAVGGYPRYGYWGQGTQVTVSS”, the “polyreactivity (PSR sort gate)” value was “high polyreactivity”. With “QVQLVESGGGLVQAGGSLRLSCAASGRIFKNNAMGWYRQAPGKERELVAVISGSGGSTYADSVKGRFTISRDNAKNTVYLQLNSLKPADTAVYYCAASRYYRIWYSLLQGYDYWGQGTQVTVSS” the “polyreactivity (PSR sort gate)” value was “high polyreactivity”. In the case of “QVHLVESGGGLVQAGGSLLLSCAASGFTFTAYAMGWYRQAPGKERELVAAISYRGGRTNYAYSVKGRFTISRDNAKNTVYLQMNSLKPEDTAVYYCASRQGISTREMDYWGQGTQVTVSS”, the “polyreactivity (PSR sort gate)” value was “high polyreactivity”. In the case of “QVQIVESGRGLVQAGGSLRLSCASSGFTFVSYAMGWYRQAPGKERELDASISKRGGTTYYADSVKGRFTISRDNAKNTVYLQMNSLKPEDTAVYYCYARDTRRYVTYDSGYDYWGQGTQVTVSS”, the “polyreactivity (PSR sort gate)” value was “high polyreactivity”. With “QVQLVESGGGLVQAGGSLRLSCAASGSTFTINVMGWYRQAPGKERELVAAIHGGGRPNYADSVKGRFTISRDNAKKTVYLQMNSLKPEDTAVYYCAADGLSNVRQMDYWGQGTQVTVSS” the “polyreactivity (PSR sort gate)” value was “low polyreactivity”. In the case of “QVQLVESCRGLVQAGGSLRLICAASGLTFRYYSMGWYRQAPGKERELVASISWCGASTYYADSVKGRFTISRDNAKNTVYLQMISLKPEDTAVYYCNAGYSGSYDYWGQGTQVTVSS”, the “polyreactivity (PSR sort gate)” value was “high polyreactivity”. In the case of “QLQLEDSGGGLVQAGGILRLSFAASGFTFFYNAMRWYSQAPATEREFDAAISGRGGTTYYADSVKGRFTISRDNAKNTVYLQMNSVKPEDTAVYYCAARSVSTLRYTSGKLRYDYWGQGTQVTVSS”, the “polyreactivity (PSR sort gate)” value was “high polyreactivity”. For “QVQLVESGGGLVQAGGSLRLSCAASGFTFRYYTMGWYRQAPGKERELVARITTGGSTYYADPVKGRFTISRDNAKKTVYLQMNSLKPEDTAVYFCAARLSRWWPPTGVHYTDRYYWGQGTQVTVSS”, the “polyreactivity (PSR sort gate)” value was “high polyreactivity”. With “QVQLVESGGGLGQAGGSLRLSCAASGSIFWGNAMGWYRQAPGKESELVACIRNSGTSTYYADSVKWRFTISRDNAKNTVYLKMNSLKPVDTAVYYCAAADGRQYSRYYWRGHDYWGQGTQVTVSS” the “polyreactivity (PSR sort gate)” value was “low polyreactivity”. For “QVQLVESGGGLVQAGGSLRLSCAASGSTSRGNAMAWYRKSPGKERELVATISQSGGNTFYADSVKGRFTISLDNAKNTVYLQMNSLNPEDTAVYYCAAGRYWFAWYDYWGQGTQVTVSS”, the “polyreactivity (PSR sort gate)” value was “high polyreactivity”.
